Columns and labels:
[1] = substrate: C=C(O[C@@H]1C=C(C(=O)O)C=C[C@H]1O)C(=O)O; experiment: coupled fluorimetric assay with PchB (salicylate formation); type: biochemical, Arabidopsis thaliana; settings: 100 mM Tris-HCl pH 7.7, 10 mM MgCl2, 30°C, 1 µM His6-PchB, 100 nM enzyme
Excerpt: coupled fluorimetric assay with PchB (salicylate formation) on AtICS1 (His6-AtICS1, ICS1)

[2] = substrate: C=C(O[C@@H]1C=C(C(=O)O)C=C[C@H]1O)C(=O)O; experiment: as above; type: biochemical, Arabidopsis thaliana; settings: 100 mM Tris-HCl pH 7.7, 10 mM MgCl2, 30°C, 1 µM His6-PchB, 100 nM enzyme; remark: listed apart in the source
Excerpt: coupled fluorimetric assay with PchB (salicylate formation) on AtICS2 (His6-AtICS2, ICS2)

B1: AtICS1 (His6-AtICS1, ICS1) (Arabidopsis thaliana) (protein)
chain: MNGCDGDFKTPLGTVETRTMTAVLSPAAATERLISAVSELKSQPPSFSSGVVRLQVPIDQQIGAIDWLQAQNEIQPRCFFSRRSDVGRPDLLLDLANENGNGNGNGTVSSDRNLVSVAGIGSAVFFRDLDPFSHDDWRSIRRFLSSTSPLIRAYGGMRFDPNGKIAVEWEPFGAFYFSVPQVEFNEFGGSSMLAATIAWDDELSWTLENAIEALQETMLQVSSVVMKLRNRSLGVSVLSKNHVPTKGAYFPAVEKALEMINQKSSPLNKVVLARNSRIITDTDIDPIAWLAQLQREGHDAYQFCLQPPGAPAFIGNTPERLFQRTQLGVCSEALAATRPRAASSARDMEIERDLLTSPKDDLEFSIVRENIREKLNGICDRVVVKPQKTVRKLARVQHLYSQLAGRLTKEDDEYKILAALHPTPAVCGLPAEEARLLIKEIESFDRGMYAGPIGFFGGEESEFAVGIRSALVEKGLGALIYAGTGIVAGSDPSSEWNELDLKISQFTKSIEYEATTSLQAIN
notes: transit peptide removed (forward primer encodes MNGCDG start), N-terminal His6 tag from pET-28a TEV, no tag cleavage described; E. coli Rosetta DE3 pLysS; ~60 kDa; monomer
With B1 the Km [1] was 34.3 ± 3.7 µM, the kcat [1] was 0.635 ± 0.025 s⁻¹ and the kcat/Km [1] was 18500 ± 217 M⁻¹ s⁻¹.

B2: AtICS2 (His6-AtICS2, ICS2) (Arabidopsis thaliana) (protein)
chain: MNGCEADHKAPLGTVETRTLSTVPSPAAATERLITAVSDLKSQPPPFSSGIVRLQVPIEQKIGAIDWLHAQNEILPRSFFSRRSDSGRPDLLQDFSSDNGSSDHNPVSVAGIGSAVFFRDLDPFSHDDWRSIRRFLSSKSPLIRAYGGLRFDPTGKIAVEWEHFGSFYFTVPQVEFDEFGGSSMLAATVAWDNELSWTLENAIEALQETMLQVSSVIMRLRRESLGVIVVSKNHVPSEGAYYPAVNNALEIIKDKHSPLSKVVLARSSRIITDTDIDPIAWLARLQCEGQDAYQFCLQPPGAPAFIGNTPERLFHRKHLGVCSEALAATRPRGDSKVREMEIERDLLTSPKDDLEFSIVRENIREKLKTICDRVVVKPHKSVRKLARVQHLYSQLAGQLKREDDEFNILTALHPTPAVCGCPVEEARLLIKQIESFDRGMYAGPIGFFGGGESEFSVGIRSALVEKGLGALIYAGTGIVSGSNPSSEWNELELKISQFTKSLEHESALQPIN
notes: transit peptide removed (forward primer encodes MNGCEA start), N-terminal His6 tag from pET-28a TEV, no tag cleavage described; E. coli Rosetta DE3 pLysS; ~60 kDa; monomer
Work on B2 yielded a Km [2] of 28.8 ± 6.9 µM, a kcat [2] of 0.283 ± 0.02 s⁻¹ and a kcat/Km [2] of 9830 ± 1030 M⁻¹ s⁻¹.

Source: PMC5408348, “The biochemical properties of the two Arabidopsis thaliana isochorismate synthases” (Biochemical Journal, 2017)
